T1: STUB1 (STIP1 homology and U-box containing protein 1) (human, UniProt Q9UNE7 1-303)
T1 construct: also called E3 ubiquitin ligase STIP1 Homology and U-Box Containing Protein 1
T1 sequence (looked up): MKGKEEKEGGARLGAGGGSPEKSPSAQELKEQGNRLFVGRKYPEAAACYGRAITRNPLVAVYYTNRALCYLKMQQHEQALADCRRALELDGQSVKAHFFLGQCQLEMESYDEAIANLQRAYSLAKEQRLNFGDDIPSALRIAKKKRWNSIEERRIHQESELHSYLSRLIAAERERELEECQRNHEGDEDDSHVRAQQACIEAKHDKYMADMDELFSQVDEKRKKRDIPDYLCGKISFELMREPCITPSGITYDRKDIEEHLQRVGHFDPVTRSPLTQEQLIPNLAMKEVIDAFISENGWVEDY

B1: DH511.2 (antibody, V domains shown)
VH: QVQLVQSGGGLVKPGGSLTLSCSASGFFFDNSWMGWVRQAPGKGLEWVGRIRRLKDGATGEYGAAVKDRFTISRDDSRNMLYLHMRTLKTEDSGTYYCTMDEGTPVTRFLEWGYFYYYMAVWGRGTTVIVSS
VL: DIVMTQSPSSVSASVGDRVTITCRASQNIRDYLNWYQHKPGGSPRLLIYAASTLQTGVPSRFSGSGSGNLFTLTITNLQPEDFATYYCQENYNTIPSLSFGQGTKVDIR
notes: also called DH512; Ab510049

Experiments:
[1] = target: gp41 of HIV-1 isolate B.BG1168 Env (HIV-1); test: cell-based or functional assay
[2] = target: T1, STUB1 (STIP1 homology and U-box …); test: protein microarray of >9400 human proteins
Method: Antibodies were also screened for binding to a panel of >9,400 human proteins using a Protoarray microarray (Invitrogen, Carlsbad, Calif.) according to the manufacturer's instructions and as described in (6). […] Arrays were scanned using a GenePix 4000B scanner (Molecular Devices, Sunnyvale, Calif.) at a wavelength of 635 nm, 10 µm resolution, using 100% power and 650 gain. The fluorescence intensity of antibody binding was measured with the GenePix Pro 5.0 program (Molecular Devices, Sunnyvale, Calif.).

| Molecule | lifetime of neutralization (t1/2), post-attachment TZM-bl assay with B.BG1168 [1] | binding result [2] |
| --- | --- | --- |
| 4E10 (antibody) | 28.2 min |  |
| 10E8 (antibody) | 25.6 min |  |
| B1 |  | binds |

From patent publication US11071783 (DUKE UNIVERSITY, dated 2021)
